Data: paper PMC7954794, “Protein context shapes the specificity of SH3 domain-mediated interactions in vivo” (Nature Communications, 2021)

System: PPIs identified as affected by the SH3 domain deletions
Experiment: Liquid DHFR-PCA low-throughput validation of PPIs affected by SH3 deletion (Fig. S1D-E)
Format: cell-based, Saccharomyces cerevisiae
Conditions: label = prey, liquid DHFR-PCA, prey _1 = lost, _2 = gained in screen
Method in brief: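 Yeast diploids from DHFR-PCA mating grown 48 h in synthetic complete MSG medium pH 6.0 with NAT and HPH, normalized to 1 OD and diluted to 0.1 OD in liquid PCA selection medium. Growth followed by OD every 15 min for 72 h at 30 °C.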

B1: YHR016C_1 (protein, UniProt P32793 1-468, looked up)
Protein YSC84: MGINNPIPRSLKSETKKAAKVLRSFVKPNQVFGADQVIPPYVLKRAKGLAIITVLKAGFLFSGRAGSGVIVARLKDGTWSAPSAIAMAGAGAGGMVGVELTDFVFILNSEEAVRSFSEFGTITLGGNVSVSAGPLGRSAEAAASASTGGVSAVFAYSKSKGLFAGVSVEGSAILERREANRKFYGDNCTSKMILSGRVKVPPAADPLLRILESRAFNFTRHDHDDNASGDDFYDDGQYSDNTSHYYDDIPDSFDSTDESSTRPNTRSSRRRGMSLGSRSRYDDDYDDDGYGRGRGYGDFDSEDEDYDYGRSPNRNSSRNRGPQIDRGTKPRANTRWEDDLYDRDTEYSRPNHSGRDYDNTRGNRRGYGRERGYSLGHGPTHPSNMSNVDDLSHKMSKTGLGNESTATNSATPTAVALYNFAGEQPGDLAFKKGDVITILKKSDSQNDWWTGRTNGKEGIFPANYVRVS
Bait HOF1
  Ratio (Deletedscore / WTscore): 0.9486
Bait MYO5
  Ratio (Deletedscore / WTscore): 0.6586
Bait RVS167
  Ratio (Deletedscore / WTscore): 0.5834

B2: YGR037C_1 (protein, UniProt P31787 1-87, looked up)
Acyl-CoA-binding protein: MVSQLFEEKAKAVNELPTKPSTDELLELYALYKQATVGDNDKEKPGIFNMKDRYKWEAWENLKGKSQEDAEKEYIALVDQLIAKYSS
Bait LSB1
  Ratio (Deletedscore / WTscore): 1.041

B3: YLR332W_1 (protein, UniProt P36027 26-376, looked up)
Cell wall integrity sensor …: QFFVQSSSSNSSAVSTARSSVSRVSSSSSILSSSMVSSSSADSSSLTSSTSSRSLVSHTSSSTSIASISFTSFSFSSDSSTSSSSSASSDSSSSSSFSISSTSATSESSTSSTQTSTSSSSSLSSTPSSSSSPSTITSAPSTSSTPSTTAYNQGSTITSIINGKTILSNHYTTVTYTPSATADSSNKSKSSGLSKKNRNIVIGCVVGIGVPLILVILALIYMFCIQSSRTDFIDSDGKVVTAYRANKFTKWWYMLLGKKVSDEYHSDSPLGGSASSAGGLDLDEADDVMEQSSLFDVRIRDSDSVLPNANTADHNNTNSGGEPINSSVASNDIIEEKFYDEQGNELSPRNY
Bait CDC25
  Ratio (Deletedscore / WTscore): 0.4625
Bait NBP2
  Ratio (Deletedscore / WTscore): 0.9277

B4: YLR258W_2 (protein, UniProt P27472 1-705, looked up)
Glycogen [starch] synthase …: MSRDLQNHLLFETATEVANRVGGIYSVLKSKAPITVAQYKDHYHLIGPLNKATYQNEVDILDWKKPEAFSDEMRPVQHALQTMESRGVHFVYGRWLIEGAPKVILFDLDSVRGYSNEWKGDLWSLVGIPSPENDFETNDAILLGYTVAWFLGEVAHLDSQHAIVAHFHEWLAGVALPLCRKRRIDVVTIFTTHATLLGRYLCASGSFDFYNCLESVDVDHEAGRFGIYHRYCIERAAAHSADVFTTVSQITAFEAEHLLKRKPDGILPNGLNVIKFQAFHEFQNLHALKKEKINDFVRGHFHGCFDFDLDNTLYFFIAGRYEYKNKGADMFIEALARLNYRLKVSGSKKTVVAFIVMPAKNNSFTVEALKGQAEVRALENTVHEVTTSIGKRIFDHAIRYPHNGLTTELPTDLGELLKSSDKVMLKRRILALRRPEGQLPPIVTHNMVDDANDLILNKIRQVQLFNSPSDRVKMIFHPEFLNANNPILGLDYDEFVRGCHLGVFPSYYEPWGYTPAECTVMGVPSITTNVSGFGAYMEDLIETNQAKDYGIYIVDRRFKAPDESVEQLVDYMEEFVKKTRRQRINQRNRTERLSDLLDWKRMGLEYVKARQLALRRGYPDQFRELVGEELNDSNMDALAGGKKLKVARPLSVPGSPRDLRSNSTVYMTPGDLGTLQEVNNADDYFSLGVNPAADDDDDGPYADDS
Bait ABP1
  Ratio (Deletedscore / WTscore): 1.221

B5: YJR076C_1 (protein, UniProt P32458 2-415, looked up)
Cell division control protein …: SGIIDASSALRKRKHLKRGITFTVMIVGQSGSGRSTFINTLCGQQVVDTSTTILLPTDTSTEIDLQLREETVELEDDEGVKIQLNIIDTPGFGDSLDNSPSFEIISDYIRHQYDEILLEESRVRRNPRFKDGRVHCCLYLINPTGHGLKEIDVEFIRQLGSLVNIIPVISKSDSLTRDELKLNKKLIMEDIDRWNLPIYNFPFDEDEISDEDYETNMYLRTLLPFAIIGSNEVYEMGGDVGTIRGRKYPWGILDVEDSSISDFVILRNALLISHLHDLKNYTHEILYERYRTEALSGESVAAESIRPNLTKLNGSSSSSTTTRRNTNPFKQSNNINNDVLNPASDMHGQSTGENNETYMTREEQIRLEEERLKAFEERVQQELLLKRQELLQREKELREIEARLEKEAKIKQEE
Bait BEM1-2
  Ratio (Deletedscore / WTscore): 0.6782
Bait MYO3
  Ratio (Deletedscore / WTscore): 0.8182
Bait MYO5
  Ratio (Deletedscore / WTscore): 0.9436
Bait RVS167
  Ratio (Deletedscore / WTscore): 1.148

B6: YLR314C_1 (protein, UniProt P32457 2-520, looked up)
Cell division control protein …: SLKEEQVSIKQDPEQEERQHDQFNDVQIKQESQDHDGVDSQYTNGTQNDDSERFEAAESDVKVEPGLGMGITSSQSEKGQVLPDQPEIKFIRRQINGYVGFANLPKQWHRRSIKNGFSFNLLCVGPDGIGKTTLMKTLFNNDDIEANLVKDYEEELANDQEEEEGQGEGHENQSQEQRHKVKIKSYESVIEENGVKLNLNVIDTEGFGDFLNNDQKSWDPIIKEIDSRFDQYLDAENKINRHSINDKRIHACLYFIEPTGHYLKPLDLKFMQSVYEKCNLIPVIAKSDILTDEEILSFKKTIMNQLIQSNIELFKPPIYSNDDAENSHLSERLFSSLPYAVIGSNDIVENYSGNQVRGRSYPWGVIEVDNDNHSDFNLLKNLLIKQFMEELKERTSKILYENYRSSKLAKLGIKQDNSVFKEFDPISKQQEEKTLHEAKLAKLEIEMKTVFQQKVSEKEKKLQKSETELFARHKEMKEKLTKQLKALEDKKKQLELSINSASPNVNHSPVPTKKKGFLR
Bait BEM1-2
  Ratio (Deletedscore / WTscore): 0.9934
Bait NBP2
  Ratio (Deletedscore / WTscore): 0.9977

B7: YDL146W_1 (protein, UniProt Q12342 1-491, looked up)
Protein LDB17: MILDPLSPNIENHTQDEIIEFWEKTESIANIPKENLDESHVNSSLVAYLKFATDSYKVFINTDRDLYRMSLILLESSLFEFKKEFCLSKLQSLLNIDLLEMNMKFIIVYILLCEAKKNVYSLEIMLKFQGFTVFYNTLYTQFAYLSKYGKERTVASKHQYNSNNSSTGTSLDSLDRSLTDIDLGIIDEMKQISTVLMDLLFQIMKYCKCVIANLQIVDDFFVYYMMESMRSDTMDDMFNNAEFKLLLALNEQYMMFAKEYDIENKVYKYLINGSVSRCFTELLLLKFNRASDPPLQIMMCKIIYLILTPRGDYSPMNFFYTNDLRVLIDVLIRELQNISEDEEVLRNTLLRVLIPLLKNTQLSKTHYRKDDLNKLLNYLSTLDNICVDSPALHEHQVTVALSRKCLQQIPWLETPSTPSDGGSSVSSNNTSRNSSIVALGTPDNQNILARKGHLYSNRELDVSAESLTKRKAKAPPPPPPPPPSRKCGTPK
Bait BZZ1-1
  Ratio (Deletedscore / WTscore): 0.5572
Bait BZZ1-2
  Ratio (Deletedscore / WTscore): 0.7122
Bait LSB3
  Ratio (Deletedscore / WTscore): 0.6902

B8: YKL129C_1 (protein, UniProt P36006 1-1272, looked up)
Myosin-3: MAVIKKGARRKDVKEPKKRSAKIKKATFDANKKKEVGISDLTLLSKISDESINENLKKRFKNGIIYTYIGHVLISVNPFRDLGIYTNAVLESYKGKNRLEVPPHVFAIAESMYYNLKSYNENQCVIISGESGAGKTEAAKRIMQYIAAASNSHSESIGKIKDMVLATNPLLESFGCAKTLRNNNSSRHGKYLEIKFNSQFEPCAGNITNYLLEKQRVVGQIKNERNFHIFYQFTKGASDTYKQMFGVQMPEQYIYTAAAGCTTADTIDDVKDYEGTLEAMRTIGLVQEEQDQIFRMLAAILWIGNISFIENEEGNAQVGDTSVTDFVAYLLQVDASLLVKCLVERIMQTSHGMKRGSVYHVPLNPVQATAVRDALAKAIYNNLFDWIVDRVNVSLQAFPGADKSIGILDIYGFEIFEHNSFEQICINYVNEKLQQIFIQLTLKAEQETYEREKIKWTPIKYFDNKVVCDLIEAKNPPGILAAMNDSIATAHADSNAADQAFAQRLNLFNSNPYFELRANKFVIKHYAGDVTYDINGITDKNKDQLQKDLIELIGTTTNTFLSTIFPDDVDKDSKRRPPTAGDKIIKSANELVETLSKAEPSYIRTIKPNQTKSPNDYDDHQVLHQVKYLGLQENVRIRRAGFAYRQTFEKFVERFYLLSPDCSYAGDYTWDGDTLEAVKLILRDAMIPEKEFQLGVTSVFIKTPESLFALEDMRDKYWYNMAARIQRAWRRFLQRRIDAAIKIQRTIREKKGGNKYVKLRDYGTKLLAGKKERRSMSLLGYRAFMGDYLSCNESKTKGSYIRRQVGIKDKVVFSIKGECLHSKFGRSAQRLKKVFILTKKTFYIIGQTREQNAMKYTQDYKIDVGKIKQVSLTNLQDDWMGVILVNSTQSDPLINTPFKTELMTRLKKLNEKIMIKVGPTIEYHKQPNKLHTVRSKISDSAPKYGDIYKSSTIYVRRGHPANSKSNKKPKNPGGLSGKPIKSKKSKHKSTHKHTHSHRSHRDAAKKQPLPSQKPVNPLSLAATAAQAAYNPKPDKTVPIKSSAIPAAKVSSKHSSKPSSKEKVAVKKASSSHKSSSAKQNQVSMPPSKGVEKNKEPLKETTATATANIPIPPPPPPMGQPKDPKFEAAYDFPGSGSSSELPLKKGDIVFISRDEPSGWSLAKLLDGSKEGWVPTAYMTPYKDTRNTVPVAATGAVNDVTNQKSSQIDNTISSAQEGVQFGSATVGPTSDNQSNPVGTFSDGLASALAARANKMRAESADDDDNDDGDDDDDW
Bait BZZ1-1
  Ratio (Deletedscore / WTscore): 0.69
Bait PIN3
  Ratio (Deletedscore / WTscore): 0.7986

B9: YCR009C_1 (protein, UniProt P25343 1-265, looked up)
Reduced viability upon …: MSWEGFKKAINRAGHSVIIKNVDKTIDKEYDMEERRYKVLQRAGEALQKEAKGFLDSLRAVTASQTTIAEVISNLYDDSKYVAGGGYNVGNYYLQCVQDFDSETVKQLDGPLRETVLDPITKFSTYFKEIEEAIKKRDHKKQDFDAAKAKVRRLVDKPAKDASKLPRAEKELSLAKDIFENLNNQLKTELPQLVSLRVPYFDPSFEALIKIQLRFCTDGYTRLAQIQQYLDQQSRDDYANGLLDTKIEELLGQMTSLDICALGIK
Bait LSB1
  Ratio (Deletedscore / WTscore): 0.9386
Bait LSB3
  Ratio (Deletedscore / WTscore): 0.7612
Bait MYO3
  Ratio (Deletedscore / WTscore): 0.6894
Bait MYO5
  Ratio (Deletedscore / WTscore): 0.8072
